Reference: patent publication US20240309103A1 (Regeneron, published 2024)

Columns and labels:
[1] = target: T1, hNPR1-mFc:hANP or hNPR1-hFc:hANP complex (human, UniProt P01160 124-151); assay: SPR, mAb captured, 25C
T1 construct: also called human NPR1 complexed to ANP
Description: (§1) Equilibrium dissociation constant (KD) for different NPR1 reagents binding to purified anti-NPR1 monoclonal antibodies (mAbs) were determined using a real-time surface plasmon resonance based Biacore 4000 biosensor. All binding studies were performed in 10 mM HEPES, 150 mM NaCl, 3 mM EDTA, and 0.05% v/v Surfactant Tween-20, pH 7.4 (HBS-ET) running buffer at 25° C. and 37° C. The Biacore CM5 sensor chip surface was first derivatized by amine coupling with either mouse anti-human Fc specific mAb (GE Healthcare, #BR100839) or goat anti-human Fcy specific polyclonal antibody (Jackson ImmunoResearch Laboratories, #BR-1008-39) to capture anti-NPR1 mAbs.

hNPR1-mFc:hBNP complex [2] = target: T2, hNPR1-mFc:hBNP complex (human, UniProt P16860 103-134); assay: SPR, mAb captured, 25C
T2 construct: also called human NPR1 complexed to BNP
Description: as §1

mfNPR1-mFc = target: T3, mfNPR1-mFc (monkey); assay: SPR, mAb captured, 25C
T3 construct: also called dimeric monkey NPR1
T3 chain: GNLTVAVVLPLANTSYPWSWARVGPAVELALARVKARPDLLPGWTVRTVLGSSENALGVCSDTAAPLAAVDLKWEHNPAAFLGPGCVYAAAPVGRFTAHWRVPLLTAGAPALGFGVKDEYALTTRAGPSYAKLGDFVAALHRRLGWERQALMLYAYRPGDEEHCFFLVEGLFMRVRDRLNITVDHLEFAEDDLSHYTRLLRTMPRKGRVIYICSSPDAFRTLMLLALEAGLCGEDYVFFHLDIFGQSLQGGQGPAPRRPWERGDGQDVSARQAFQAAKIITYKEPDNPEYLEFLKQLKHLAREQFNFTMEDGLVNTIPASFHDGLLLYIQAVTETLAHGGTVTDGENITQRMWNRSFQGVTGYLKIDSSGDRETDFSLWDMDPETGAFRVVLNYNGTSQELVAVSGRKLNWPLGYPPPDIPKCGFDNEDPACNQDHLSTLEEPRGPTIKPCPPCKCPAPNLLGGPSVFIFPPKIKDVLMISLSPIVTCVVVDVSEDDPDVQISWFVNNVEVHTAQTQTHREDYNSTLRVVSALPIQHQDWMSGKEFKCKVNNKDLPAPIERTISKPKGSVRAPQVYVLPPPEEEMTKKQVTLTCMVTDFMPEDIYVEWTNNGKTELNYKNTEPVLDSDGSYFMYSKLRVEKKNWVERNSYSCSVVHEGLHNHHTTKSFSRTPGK
Description: as §1

mfNPR1-mFc:hANP complex [3] = target: T4, mfNPR1-mFc:hANP complex (monkey; human, UniProt P01160 124-151); assay: SPR, mAb captured, 25C
T4 construct: also called monkey NPR1 complexed to ANP
Description: as §1

mfNPR1-mFc:hBNP complex = target: T5, mfNPR1-mFc:hBNP complex (monkey; human, UniProt P16860 103-134); assay: SPR, mAb captured, 25C
T5 construct: also called monkey NPR1 complexed to BNP
Description: as §1

[4] = target: T1, hNPR1-mFc:hANP or hNPR1-hFc:hANP complex; assay: SPR, mAb captured, 37C
Description: as §1

hNPR1-mFc:hBNP complex [5] = target: T2, hNPR1-mFc:hBNP complex; assay: SPR, mAb captured, 37C
Description: as §1

mfNPR1-mFc:hANP complex [6] = target: T4, mfNPR1-mFc:hANP complex; assay: SPR, mAb captured, 37C
Description: as §1

B1: mAb25502 (antibody, human IgG4, V domains shown)
VH: QLQLQESGPGLVKPSETLSLTCTVSGGSISSSSYYWGWIRQPPGKGLEWIGSIYYSGSPYYIPSLKSRVTISVDTSKNQFSLKLSSVTAADTAMYYCARQGRGIARAGPFDYWGQGTLVTVSS
VL: DIQMTQSPSSLSASVGDRVTITCRASQGISNYLAWYQEKPGKVPKLLIYAASTLQSGVPSRFSGSGSGTDFTLTITSLQSEDVATYYCQKYNSAPPWTFGQGTKVEIK
[1]
  100 nM Ag Bound (RU): 81 RU
  Kd: 4.17 nM
  koff: 0.000253 s⁻¹
  kon: 60600 M⁻¹ s⁻¹
  t½: 45.7 min
hNPR1-mFc:hBNP complex [2]
  100 nM Ag Bound (RU): 78 RU
  Kd: 3.4 nM
  koff: 0.000236 s⁻¹
  kon: 69400 M⁻¹ s⁻¹
  t½: 49 min
mfNPR1-mFc
  100 nM Ag Bound (RU): 22 RU
  Kd: 1.6 nM
  koff: 0.000141 s⁻¹
  kon: 88300 M⁻¹ s⁻¹
  t½: 82 min
mfNPR1-mFc:hANP complex [3]
  100 nM Ag Bound (RU): 113 RU
  Kd: 3.56 nM
  koff: 0.000264 s⁻¹
  kon: 74000 M⁻¹ s⁻¹
  t½: 43.8 min
mfNPR1-mFc:hBNP complex
  100 nM Ag Bound (RU): 110 RU
  Kd: 4.08 nM
  koff: 0.000282 s⁻¹
  kon: 69000 M⁻¹ s⁻¹
  t½: 41 min
[4]
  100 nM Ag Bound (RU): 105 RU
  Kd: 6.49 nM
  koff: 0.000467 s⁻¹
  kon: 72000 M⁻¹ s⁻¹
  t½: 24.7 min
hNPR1-mFc:hBNP complex [5]
  100 nM Ag Bound (RU): 102 RU
  Kd: 7.82 nM
  koff: 0.000472 s⁻¹
  kon: 60300 M⁻¹ s⁻¹
  t½: 24.5 min
mfNPR1-mFc:hANP complex [6]
  100 nM Ag Bound (RU): 143 RU
  Kd: 5.76 nM
  koff: 0.000524 s⁻¹
  kon: 91000 M⁻¹ s⁻¹
  t½: 22 min

B2: mAb22810 (antibody, human IgG4, V domains shown)
VH: EVQLVESGGGLVKPGGSLRLSCVVSGFTFRIYTMNWVRQAPGKGLEWVASISSSSSFINYADSLKGRFTISRDNAQNSLYLQMNSLRAEDTAIYYCARAAGNDVLPGRMDVWGQGTSVTVSS
VL: EIVLTQSPGTLSLSPGERATLSCRASQSVSSNYLAWYQQKPGQVPSLLIYGASSRATGIPDRFSGSGSGTDFTLTITRLEPEDFAVYYCQQYGISPWTFGQGTKVEIK
[1]
  100 nM Ag Bound (RU): 14 RU
  Kd: 41.4 nM
  koff: 0.000344 s⁻¹
  kon: 8310 M⁻¹ s⁻¹
  t½: 34 min
[4]
  100 nM Ag Bound (RU): 26 RU
  Kd: 75.5 nM
  koff: 0.00104 s⁻¹
  kon: 13700 M⁻¹ s⁻¹
  t½: 11 min
